{"source": "patent US20240287172A1", "about": "(SCIRHOM, published 2024)", "binders": {"B1": {"name": "antibody 48 (antibody, V domains shown)", "VH": "QVQLQQSGTELVRPGTSVKVSCKASGYAFTNYLIEWVKQRPGQGLEWIGVINPGSGFTKYNEKFKGKATLTADKSSSTVYMHLSSLTSEDSAVYFCARGLYRAMDYWGQGTSVTVSS", "VL": "DIQMTQSPASQSASLGESVTITCLASQTIATWLAWYQQKPGKSPQLLIYGATTLADGVPSRFSGGGSGTKFSFKISSLQAEDFVSYYCQQLYSTPYTFGGGTKLEIK", "notes": "mouse IgG, kappa light chain; also called clone #48; purified antibody 48"}, "B2": {"name": "antibody 50 (antibody, V domains shown)", "VH": "B1 VH with T9A, T16A, T30S, V79A, H82Q", "VL": "B1 VL with A30G, G50A, T52A, T53S, S85N, L91I", "notes": "mouse IgG, kappa light chain; also called clone #50; purified antibody 50"}}, "key": {"[1]": {"molecular_target": "T1, hiR2-FL-F523W-T7 (human, UniProt Q6PJF5 1-856)", "T1 sequence": "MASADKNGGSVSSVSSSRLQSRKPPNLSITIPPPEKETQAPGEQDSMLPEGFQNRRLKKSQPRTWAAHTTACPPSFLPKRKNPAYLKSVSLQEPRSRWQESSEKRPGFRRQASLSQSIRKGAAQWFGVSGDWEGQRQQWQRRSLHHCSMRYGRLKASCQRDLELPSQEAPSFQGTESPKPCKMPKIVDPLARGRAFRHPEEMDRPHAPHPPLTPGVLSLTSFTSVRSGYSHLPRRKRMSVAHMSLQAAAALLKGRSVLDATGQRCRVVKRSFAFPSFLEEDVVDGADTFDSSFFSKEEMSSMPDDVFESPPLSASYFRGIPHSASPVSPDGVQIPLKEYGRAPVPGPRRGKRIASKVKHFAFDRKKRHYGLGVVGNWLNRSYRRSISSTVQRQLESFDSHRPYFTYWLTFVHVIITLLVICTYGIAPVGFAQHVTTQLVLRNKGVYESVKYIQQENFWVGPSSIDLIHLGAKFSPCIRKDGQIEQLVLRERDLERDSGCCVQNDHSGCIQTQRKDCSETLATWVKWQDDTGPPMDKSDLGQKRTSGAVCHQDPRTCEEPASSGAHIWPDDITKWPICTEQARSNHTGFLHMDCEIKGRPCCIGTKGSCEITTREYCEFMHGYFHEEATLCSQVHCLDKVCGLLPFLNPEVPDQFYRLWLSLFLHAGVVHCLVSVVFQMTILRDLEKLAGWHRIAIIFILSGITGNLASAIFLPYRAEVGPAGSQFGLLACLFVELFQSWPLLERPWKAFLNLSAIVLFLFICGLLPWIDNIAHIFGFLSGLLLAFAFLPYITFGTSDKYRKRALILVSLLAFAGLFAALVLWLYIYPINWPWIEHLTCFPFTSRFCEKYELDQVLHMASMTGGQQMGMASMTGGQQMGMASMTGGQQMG", "experiment": "FACS, MEF-DKO cells, 3 µg/ml"}, "[2]": {"molecular_target": "T2, hiR2-FL-Q437D-T7 (human, UniProt Q6PJF5 1-856)", "T2 sequence": "T1 sequence with Q437D, W523F", "experiment": "FACS, MEF-DKO cells, 3 µg/ml", "source_text": "In brief, immortalized MEF-DKO-hiR2-FL-A431S-T7, MEF-DKO-hiR2-FL-V434E-T7, MEF-DKO-hiR2-FL-T436V-T7, MEF-DKO-hiR2-FL-Q437D-T7, MEF-DKO-hiR2-FL-L438S-T7, MEF-DKO-hiR2-FL-S448N-T7, MEF-DKO-hiR2-FL-I452V-T7, MEF-DKO-hiR2-FL-I464E-T7, MEF-DKO-hiR2-FL-D465A-T7, MEF-DKO-hiR2-FL-I477M-T7, MEF-DKO-hiR2-FL-K479Q-T7, MEF-DKO-hiR2-FL-G481P-T7, MEF-DKO-hiR2-FL-I483V-T7, MEF-DKO-hiR2-FL-E484H-T7, MEF-DKO-hiR2-FL-Q485S-T7, MEF-DKO-hiR2-FL-L486F-T7, MEF-DKO-hiR2-FL-V487I-T7, MEF-DKO-hiR2-FL-R489S-T7, MEF-DKO-hiR2-FL-E490A-T7, MEF-DKO-hiR2-FL-D492E-T7, MEF-DKO-hiR2-FL-L493R-T7, MEF-DKO-hiR2-FL-R495K-T7 and MEF-DKO-hiR2-FL-D496H-T7 cells were harvested with 10 mM EDTA in PBS, washed and resuspended in FACS buffer (PBS, 3% FBS, 0.05% sodium azide), and seeded in Nunc U-bottom 96-well plates (Thermo Fisher Scientific, USA) at approximately 1×10⁵ cells per well. To pellet cells and remove supernatants, the plates were centrifuged at 1,500 rpm and 4° C. for 3 minutes. For primary staining, cells were resuspended in 100 μl per well of either FACS buffer alone (controls) or the purified antibodies 3, 5, 16, 22, 34, 42, 43, 44, 48, and 50 of the invention at 3 μg/ml in FACS buffer and incubated on ice for 1 hour. Afterwards, plates were centrifuged at 1,500 rpm and 4° C. for 3 minutes and washed twice with 200 μl per well of FACS buffer. For secondary staining, cells were spun down and resuspended in 100 μl per well of PE-conjugated goat anti-mouse IgG F(ab′)2 detection fragment (Dianova, Germany) diluted 1:100 in FACS buffer. Protected from light, the cell suspensions were incubated on ice for 1 hour. Plates were then centrifuged at 1,500 rpm and 4° C. for 3 minutes and washed three times with 200 μl per well of FACS buffer. Finally, cells were resuspended in 150 μl per well of FACS buffer and analyzed using a BD Accuri™ C6 Plus flow cytometer (Becton Dickinson, Germany)."}}, "note": "Where a chain is given by its changes, count along the chain named."}
{"binder": "B1", "values": [{"measurement": "loss of binding vs wild type", "setting": "[1]", "value": "≥ 30", "unit": "%"}, {"measurement": "loss of binding vs wild type", "setting": "[2]", "value": "≥ 30", "unit": "%"}]}
{"binder": "B2", "values": [{"measurement": "loss of binding vs wild type", "setting": "[1]", "value": "≥ 30", "unit": "%"}, {"measurement": "loss of binding vs wild type", "setting": "[2]", "value": "≥ 30", "unit": "%"}]}
